Laboratory results from doi:10.1101/2023.09.20.558696.

Assays:
Assay in all cases: co-IP
[1] = target: LtPNUTS R94A, Pd-tagged (L. tarentolae)
[2] = target: LtPNUTS L111A, Pd-tagged (L. tarentolae)
[3] = target: LtPNUTS D101A, Pd-tagged (L. tarentolae)
[4] = target: LtPNUTS V97A, Pd-tagged (L. tarentolae)
[5] = target: LtPP1-8e I360A, Pd-tagged (L. tarentolae)
[6] = target: LtPP1-8e F305A, Pd-tagged (L. tarentolae)
[7] = target: LtPP1-8e CΔ11, Pd-tagged (L. tarentolae)
[8] = target: LtPP1-8e 260LP261 to alanine, Pd-tagged (L. tarentolae)
[9] = target: LtPP1-8e I217A, Pd-tagged (L. tarentolae)
[10] = target: LtPP1-8e D292A, Pd-tagged (L. tarentolae)
[11] = target: LtPP1-8e 109-134Δ, Pd-tagged (L. tarentolae)
[12] = target: LtPP1-8e 310DHK312 to alanine, Pd-tagged (L. tarentolae)
[13] = target: LtPP1-8e 359-362A, Pd-tagged (L. tarentolae)
[14] = target: LtPP1-8e 263-265A, Pd-tagged (L. tarentolae)
[15] = target: LtPP1-8e CΔ23, Pd-tagged (L. tarentolae)
[16] = target: LtPP1-8e 354-358A, Pd-tagged (L. tarentolae)
[17] = target: LtPP1-8e D290A, Pd-tagged (L. tarentolae)
[18] = target: LtPP1-8e 109-114A, Pd-tagged (L. tarentolae)

| Substance | reduction of co-IP against WT PNUTS [1] | reduction of co-IP against WT PNUTS [2] | decrease of co-IP against WT PNUTS [3] | fold decrease of co-IP against WT PNUTS [4] | reduction of co-IP against WT PP1-8e [5] | reduction of co-IP against WT PP1-8e [6] | reduction of co-IP against WT PP1-8e [7] | reduction of co-IP against WT PP1-8e [8] | reduction of co-IP against WT PP1-8e [9] | reduction of co-IP against WT PP1-8e [10] | reduction of co-IP against WT PP1-8e [11] | decrease of co-IP against WT PP1-8e [12] | reduction of co-IP against WT PP1-8e [13] | reduction of co-IP against WT PP1-8e [14] | loss of co-IP against WT PP1-8e [15] | reduction of co-IP against WT PP1-8e [16] | reduction of co-IP against WT PP1-8e [17] | reduction of co-IP against WT PP1-8e [18] |
| --- | --- | --- | --- | --- | --- | --- | --- | --- | --- | --- | --- | --- | --- | --- | --- | --- | --- | --- |
| LtPP1-8e, endogenously HA-tagged (enzyme) | 50% | 80% | 80% | 5 fold |  |  |  |  |  |  |  |  |  |  |  |  |  |  |
| LtPNUTS, endogenously HA-tagged (natural protein) |  |  |  |  | 80% | 80% | 30% | 80% | 50% | 60% | 80% | 20% | 80% | 90% | 80% | 50% | 50% | 80% |
